Data: publication doi:10.1101/2024.12.12.628104 (bioRxiv, 2024)

Target: the molecule itself
Assay: […]; 50 uM, […], pH 6.9; […]

B1: Francisella tularensis dihydrolipoyl dehydrogenase (IPD) (enzyme)
chain: MSDIKTQVVVLGSGPGGYSAAFRAADLGLEVVLVERYAEIGGVCLNVGCIPSKAMLHIAKVINEARHLESLGIIEMGGLKINRENLLKYKDGVIGKLTGGLKGMAQMRKVKIVQGYGKFTSDKELAVEAADGKVTKIAFDNCIIAAGSSVIKLPFVPEDDRIIDSTGALEMKEIPETMLVVGGGIIGLEMAQVYSELGTKITVVEFADQLMNGVDKDLVKAYQKVNSRYDVRLKTAVTAMEAKEDGIYVTMEGDHPAKDERFDRVLMAIGRKPNGKLIDAEKAGVKVDERGFIPVDKQLRTNVPHIFAIGDIVGQPMLAHKAVPEGRTAAEVISGLNHSFDPLVIPSVAYTDPEVAWVGETETSAKAKGIKYEKGVFPWAASGRSLSIDRSEGMTKILFDENHKIIGASIVGTHAGELISEAAIAIEMGCDAEDIALTVHPHPTLSESLMMATEVYEGTATDLPPQKKKK
notes: also called dihydroprolyl dehydrogenase; Francisella IPD
stoichiometry N: 2
